The target in experiment [1] is T1, human KDR-Fc fusion (R&D Systems #357-KD-050) (human, UniProt P35968 20-764).
T1 construct: bought
Kind of experiment: phage binding screen on KDR-Fc; class legend in paragraph 246.

The target of experiment [2] is T1, human KDR-Fc fusion (R&D Systems …). The experiment is described as above. This is another data set of the same source.

Read-outs that look alike come from different tables or passages of the source.

We go through 44 molecules from patent publication EP2014310A2 (Dyax Corporation, dated 2009).

T1 sequence (P35968 20-764): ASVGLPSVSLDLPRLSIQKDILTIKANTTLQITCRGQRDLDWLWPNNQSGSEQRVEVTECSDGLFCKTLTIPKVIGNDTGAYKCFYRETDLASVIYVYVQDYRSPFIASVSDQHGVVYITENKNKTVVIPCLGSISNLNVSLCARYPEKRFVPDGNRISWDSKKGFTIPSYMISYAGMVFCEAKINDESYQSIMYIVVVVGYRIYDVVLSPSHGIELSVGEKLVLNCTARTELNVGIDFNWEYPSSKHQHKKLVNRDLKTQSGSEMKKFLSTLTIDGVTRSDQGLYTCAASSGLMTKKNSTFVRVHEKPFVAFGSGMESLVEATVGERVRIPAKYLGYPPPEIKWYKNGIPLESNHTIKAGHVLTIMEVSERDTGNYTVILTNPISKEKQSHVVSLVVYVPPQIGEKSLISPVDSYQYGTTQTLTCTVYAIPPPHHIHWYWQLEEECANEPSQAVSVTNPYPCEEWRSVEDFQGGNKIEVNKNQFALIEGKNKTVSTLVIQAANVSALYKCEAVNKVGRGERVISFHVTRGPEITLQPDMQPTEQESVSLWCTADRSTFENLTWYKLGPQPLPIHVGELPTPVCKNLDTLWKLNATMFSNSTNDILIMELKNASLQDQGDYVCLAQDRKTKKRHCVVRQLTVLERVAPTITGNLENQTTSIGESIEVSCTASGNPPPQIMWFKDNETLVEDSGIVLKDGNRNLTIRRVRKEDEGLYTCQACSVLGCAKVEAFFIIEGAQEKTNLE

NGSCWYDFGWETEICFHN [phage isolate NGSCWYDFGWETEICFHN]: the binding result in experiment [1] is listed as “binds”.

Turning to WESDYWDQMRQQLKTAYMKV [phage isolate WESDYWDQMRQQLKTAYMKV], in experiment [2], the binding result was “binds”.

Turning to MPPGFSYWEQVVLHDDAQVL [phage isolate MPPGFSYWEQVVLHDDAQVL], in experiment [2], the binding result was “binds”.

Consider DWYYDEILSMADQLRHAFLS [phage isolate DWYYDEILSMADQLRHAFLS], for which, in experiment [2], the binding result is listed as “binds”.

In the case of PEDSEAWYWLNYRPTMFHQL [phage isolate PEDSEAWYWLNYRPTMFHQL], the binding result in experiment [2] is “binds”.

Regarding RGDYQEQYWHQQLVEQLKLL [phage isolate RGDYQEQYWHQQLVEQLKLL], the binding result in experiment [2] is reported as “binds”.

For the molecule FDVVNWGDGIWYAYPS [phage isolate FDVVNWGDGIWYAYPS], the binding result in experiment [2] is listed as “binds”.

For the molecule MPPGFSYWEQAALHDDAQDL [phage isolate MPPGFSYWEQAALHDDAQDL], the binding result in experiment [2] is “binds”.

On to PGHCEYIWIDEQPWCVRL [phage isolate PGHCEYIWIDEQPWCVRL], for which the binding result in experiment [1] is given as “binds”.

With KKEDAQQWYWTDYVPSYLYR [phage isolate KKEDAQQWYWTDYVPSYLYR], the binding result in experiment [2] is “binds”.

Consider STNGDSFVYWEEVELVDHPY [phage isolate STNGDSFVYWEEVELVDHPY], for which the binding result in experiment [2] was “binds”.

Take ISPWREMSGWGMPWITAVPH [phage isolate ISPWREMSGWGMPWITAVPH]: in experiment [2], the binding result is on record as “binds”.

For the molecule SYEQWLPQYWAQYKSNYFL [phage isolate SYEQWLPQYWAQYKSNYFL], the binding result in experiment [2] is “binds”.

On to FPSQMWQQKVSHHFFQHKGY [phage isolate FPSQMWQQKVSHHFFQHKGY], for which the binding result in experiment [2] was “binds”.

In the case of VSKGSIDVGEGISYWEIIEL [phage isolate VSKGSIDVGEGISYWEIIEL], the binding result in experiment [2] was “binds”.

With GSDHVRVDNYWWNGMAWEIF [phage isolate GSDHVRVDNYWWNGMAWEIF], in experiment [2], the binding result was “binds”.

For QIEYVNDKWYWTGGYWNVPF [phage isolate QIEYVNDKWYWTGGYWNVPF], in experiment [2], the binding result is listed as “binds”.

For WYYDWFHNQRKPPSDWIDNL [phage isolate WYYDWFHNQRKPPSDWIDNL], in experiment [2], the binding result is listed as “binds”.

As for ARMGDDWEEAPPHEWGWADG [phage isolate ARMGDDWEEAPPHEWGWADG], the binding result in experiment [2] is on record as “binds”.

Take RDEWGWTGVPYEGEMGYQIS [phage isolate RDEWGWTGVPYEGEMGYQIS]: the binding result in experiment [2] is recorded as “binds”.

As to RSWYLGPPYYEEWDPIPN [phage isolate RSWYLGPPYYEEWDPIPN], the binding result in experiment [2] is listed as “binds”.

In the case of PSNSWAAVWEDDMQRLMRQH [phage isolate PSNSWAAVWEDDMQRLMRQH], in experiment [2], the binding result was “binds”.

For the molecule WVTKQQFIDTYGRKEWTILF [phage isolate WVTKQQFIDTYGRKEWTILF], in experiment [2], the binding result was “binds”.

Take EPEGYAYWEVITLYHEEDGD [phage isolate EPEGYAYWEVITLYHEEDGD]: the binding result in experiment [2] is on record as “binds”.

For the molecule TKWGPNPEHWQYWYSHYASS [phage isolate TKWGPNPEHWQYWYSHYASS], the binding result in experiment [2] was “binds”.

Turning to PRLGDDFEEAPPLEWWWAHF [phage isolate PRLGDDFEEAPPLEWWWAHF], the binding result in experiment [2] is listed as “binds”.

On to EWDAQYWHDLRQQYMLDYIQ [phage isolate EWDAQYWHDLRQQYMLDYIQ], for which the binding result in experiment [2] is on record as “binds”.

WDDCIWHMWLKKKDCNSG [phage isolate WDDCIWHMWLKKKDCNSG]: in experiment [1], the binding result is “binds”.

With DWYWQRERDKLREHYDDAFW [phage isolate DWYWQRERDKLREHYDDAFW], in experiment [2], the binding result was “binds”.

On to GDYVYWEIIELTGATDHTPP [phage isolate GDYVYWEIIELTGATDHTPP], for which, in experiment [2], the binding result is recorded as “binds”.

Turning to DALEAPKRDWYYDWFLNHSP [phage isolate DALEAPKRDWYYDWFLNHSP], the binding result in experiment [2] is recorded as “binds”.

In the case of AQMPPWWPLAVDALFDWFE [phage isolate AQMPPWWPLAVDALFDWFE], the binding result in experiment [2] is “binds”.

EWYWTEHVGMKHGFFV [phage isolate EWYWTEHVGMKHGFFV]: in experiment [2], the binding result is recorded as “binds”.

Consider DWYWREWMPMHAQFLADDW [phage isolate DWYWREWMPMHAQFLADDW], for which, in experiment [2], the binding result is recorded as “binds”.

As for WLYDYWDRQQKSEEFKFWSQ [phage isolate WLYDYWDRQQKSEEFKFWSQ], the binding result in experiment [2] is “binds”.

For the molecule EEQQALYPGCEPAEHWVYAG [phage isolate EEQQALYPGCEPAEHWVYAG], the binding result in experiment [2] was “binds”.

As to AFPRFGGDDYWIQQYLRYTD [phage isolate AFPRFGGDDYWIQQYLRYTD], the binding result in experiment [2] was “binds”.

Consider AFPRFGGDDYWIQQYLRYTF [phage isolate AFPRFGGDDYWIQQYLRYTF], for which the binding result in experiment [2] is reported as “binds”.

For the molecule QVQYQFFLGTPRYEQWDLDK [phage isolate QVQYQFFLGTPRYEQWDLDK], the binding result in experiment [2] is reported as “binds”.

Turning to QVQYQFILGTPRYEQWDPDK [phage isolate QVQYQFILGTPRYEQWDPDK], the binding result in experiment [2] is recorded as “binds”.

As to YSDCLFQLWKGSVCPPS [phage isolate YSDCLFQLWKGSVCPPS], the binding result in experiment [1] is on record as “binds”.

Regarding PVTDWTPHHPKAPDVWLFYT [phage isolate PVTDWTPHHPKAPDVWLFYT], in experiment [2], the binding result is given as “binds”.

As to LEEVFEDFQDFWYTEHIIVDR [phage isolate LEEVFEDFQDFWYTEHIIVDR], the binding result in experiment [2] was “binds”.

On to AFEIEYWDSVRNKIWQHFPD [phage isolate AFEIEYWDSVRNKIWQHFPD], for which the binding result in experiment [2] was “binds”.
